22 molecules from patent US20250066422A1 (published 2025) can be followed below.

Sequences and labels used below:
B1: TANC2-001 (peptide)
peptide: ALMDKEGLTAL
notes: synthetic peptide from TANC2
B2: RAD54B-001 (peptide)
peptide: SLYKGLLSV
notes: synthetic peptide from RAD54B
B3: SNRNP20-001 (peptide)
peptide: GLIEIISNA
notes: synthetic peptide from SNRNP200
B4: PCNXL3-001 (peptide)
peptide: GVLENIFGV
notes: synthetic peptide from PCNXL3
B5: ADAM8-001 (peptide)
peptide: KLLTEVHAA
notes: synthetic peptide from ADAM8
B6: CDK4-001 (peptide)
peptide: TLWYRAPEV
notes: synthetic peptide from CDK4/CDK6
B7: ABCA13-002 (peptide)
peptide: ALDENLHQL
notes: synthetic peptide from ABCA13
B8: VCAN-001 (peptide)
peptide: TLYPHTSQV
notes: synthetic peptide from VCAN
B9: GALNT2-001 (peptide)
peptide: ALLRTVVSV
notes: synthetic peptide from GALNT2
B10: HUWE1-001 (peptide)
peptide: RLLGPSAAADILQL
notes: synthetic peptide from HUWE1
B11: SMYD3-001 (peptide)
peptide: SLIEDLILL
notes: synthetic peptide from SMYD3
B12: DROSHA-001 (peptide)
peptide: AVVEFLTSV
notes: synthetic peptide from DROSHA
B13: SEC61G-001 (peptide)
peptide: AIMGFIGFFV
notes: synthetic peptide from SEC61G
B14: COL6A3-002 (peptide)
peptide: FLLDGSANV
notes: synthetic peptide from COL6A3
B15: LAMC2-001 (peptide)
peptide: RLLDSVSRL
notes: synthetic peptide from LAMC2
B16: CSE1-001 (peptide)
peptide: ALFPHLLQPV
notes: synthetic peptide from CSE1L
B17: BNC1-001 (peptide)
peptide: VLFPNLKTV
notes: synthetic peptide from BNC1
B18: AKR-001 (peptide)
peptide: YLIHFPVSV
notes: synthetic peptide from AKR1C1, AKR1C2
B19: CEP192-001 (peptide)
peptide: SLFGNSGILENV
notes: synthetic peptide from CEP192
B20: TACC3-001 (peptide)
peptide: KLVEFDFLGA
notes: synthetic peptide from TACC3
B21: TPX2-001 (peptide)
peptide: KILEDVVGV
notes: synthetic peptide from TPX2
B22: COL12A1-002 (peptide)
peptide: FLVDGSWSV
notes: synthetic peptide from COL12A1

This test has as its target T1, HLA-A*0201 (human).
T1 construct: MHC monomer first loaded with a UV-sensitive peptide that is cleaved and exchanged for the test peptide; captured on streptavidin; also called peptide-receptive MHC molecules
Description: UV-ligand exchange, streptavidin/anti-b2m sandwich ELISA. From the text: Candidate peptides for the vaccines according to the present invention were further tested for immunogenicity by in vitro priming assays. The individual peptide-MHC complexes required for these assays were produced by UV-ligand exchange, where a UV-sensitive peptide is cleaved upon UV-irradiation, and exchanged with the peptide of interest as analyzed. Only peptide candidates that can effectively bind and stabilize the peptide-receptive MHC molecules prevent dissociation of the MHC complexes. To determine the yield of the exchange reaction, an ELISA was performed based on the detection of the light chain (β2m) of stabilized MHC complexes.
96 well MAXISorp plates (NUNC) were coated over night with 2ug/ml streptavidin in PBS at room temperature, washed 4× and blocked for 30 min at 37° C. in 2% BSA containing blocking buffer. Refolded HLAA*0201/MLA-001 monomers served as standards, covering the range of 8-500 ng/ml. Peptide-MHC monomers of the UV-exchange reaction were diluted 100 fold in blocking buffer. Samples were incubated for 1 h at 37° C., washed four times, incubated with 2ug/ml HRP conjugated anti-β2m for 1 h at 37° C., washed again and detected with TMB solution that is stopped with […]. Absorption was measured at 450 nm.
(In general: In an ELISA, binding on a coated surface is turned into a signal by an enzyme label.)
For the molecule B1, the “Average exchange yield in %” value amounted to 71%.

As to B2, the “Average exchange yield in %” value came out at 48%. The value for B3 was 54%; that for B4 was 87%; that for B5 was 67%. The figure for B6 is 45%.

In the case of B7, the “Average exchange yield in %” value stood at 36%. The value for B8 was 41%; that for B9 was 73%; that for B10 was 45%. The figure for B11 is 50%. The value for B12 was 68%; that for B13 was 18%; that for B14 was 81%. Consider B15, for which the “Average exchange yield in %” value amounted to 61%.

On to B16, for which the “Average exchange yield in %” value came to 55%. In the case of B17, the “Average exchange yield in %” value stood at 43%. The figure for B18 is 13%; for B19 it is 56%. The value for B20 was 54%. The figure for B21 is 56%. Take B22: the “Average exchange yield in %” value stood at 55%.
